Test [1] addresses Cetuximab light chain F116C_Q124R_T178R. The experiment in a line: SMCA, LC-MS; change vs wild-type bispecific; competing light chain m14.
The target is the same in test [2]. The experiment in a line: SMCA: H1, H2, L1, L2 co-expressed in CHO-3E7, protein A purified, LC-MS; competing light chain m6; against wild-type bispecific.
The target of test [3] is Cetuximab light chain Q38R_Q124R_Q160K_T178R. In words: SMCA: H1, H2, L1, L2 co-expressed in CHO-3E7, protein A purified, LC-MS; competing light chain m18.
Test [4] has the same target. In words: SMCA: H1, H2, L1, L2 co-expressed in CHO-3E7, protein A purified, LC-MS; competing light chain m18; against wild-type bispecific.
The target is the same in test [5]. The experiment in a line: SMCA: H1, H2, L1, L2 co-expressed in CHO-3E7, protein A purified, LC-MS; competing light chain m10; *** estimated change against a similar wild-type construct.
Test [6] concerns the target Cetuximab light chain Q38E_Q124E_Q160E_T180E. The experiment in a line: SMCA: H1, H2, L1, L2 co-expressed in CHO-3E7, protein A purified, LC-MS; competing light chain m14; against wild-type bispecific.
Test [7] addresses Cetuximab light chain Q124E_L135W_Q160E_T180E. In words: SMCA, LC-MS; change vs wild-type bispecific; competing light chain m12.
The target in test [8] is Cetuximab light chain Q124E_Q160E_T180E. The experiment in a line: SMCA, LC-MS; change vs wild-type bispecific; competing light chain m15.
The target of test [9] is tissue factor (TF) antigen (UniProt P13726). In words: SPR (ProteOn), Fab captured via anti-penta-His, TF injected, 1:1 fit.
The target is the same in test [10]. In words: SPR (ProteOn), Fab captured via anti-penta-His, TF injected, 1:1 fit; reference wild-type D3H44 Fab.
For test [11] the target is unchanged. In words: SPR (ProteOn), Fab captured via anti-penta-His, TF injected, 1:1 fit; estimated (*) from a Fab differing only in L chain tag.
For test [12] the target is unchanged. In words: SPR (ProteOn), Fab captured via anti-penta-His, TF injected, 1:1 fit; reference wild-type D3H44 Fab; estimated (*) from a Fab differing only in L chain tag.
The target of test [13] is D3H44 light chain F116C_Q124R_T178R. In words: SMCA, LC-MS of 4 co-expressed chains; competing light chain m32.
For test [14] the target is unchanged. The experiment in a line: SMCA, LC-MS; change vs wild-type bispecific; competing light chain m32.
Test [15] has the same target. In words: SMCA: 2 heavy + 2 light chains co-expressed, protein A, LC-MS; competing light chain m12.
The target in test [16] is D3H44 light chain Q124R_T178R. In words: SMCA, LC-MS of 4 co-expressed chains; competing light chain m25.
Test [17] deals with D3H44 light chain Q124R_T178R. The experiment in a line: SMCA, LC-MS of 4 co-expressed chains; competing light chain m30.
Test [18] deals with D3H44 light chain Q124R_T178R. In words: SMCA, LC-MS; change vs wild-type bispecific; competing light chain m25.
Test [19] concerns the target D3H44 light chain Q124R_T178R. In words: SMCA, LC-MS; change vs wild-type bispecific; competing light chain m30.
Test [20] has as its target D3H44 light chain Q124R_T178R. The experiment in a line: SMCA: H1, H2, L1, L2 co-expressed in CHO-3E7, protein A, LC-MS; competitor light chain m24.
The target in test [21] is D3H44 light chain Q124R_T178R. The experiment in a line: SMCA: H1, H2, L1, L2 co-expressed in CHO-3E7, protein A, LC-MS; competitor light chain m34.
The target in test [22] is D3H44 light chain Q124E_V133E. The experiment in a line: SMCA, LC-MS of 4 co-expressed chains; competing light chain m26.
Test [23] has as its target D3H44 light chain Q124E_V133E. The experiment in a line: SMCA, LC-MS of 4 co-expressed chains; competing light chain m42.
Test [24] addresses D3H44 light chain Q124E_V133E. The experiment in a line: SMCA, LC-MS; change vs wild-type bispecific; competing light chain m42.
For test [25], the target named is D3H44 light chain Q124E_V133E. The experiment in a line: SMCA, LC-MS; estimated change vs similar wild type (***); competing light chain m26.
Test [26] has as its target D3H44 light chain Q124E_V133E. In words: SMCA: 2 heavy + 2 light chains co-expressed, protein A, LC-MS; competing light chain m45.
For test [27], the target named is D3H44 light chain Q124E_V133E. In words: SMCA: LC-MS of protein A purified product after co-expression of H1, H2, L1, L2 in CHO-3E7; competing light chain m52.
Test [28] addresses D3H44 light chain Q38R_Q124R_Q160K_T178R. In words: SMCA: 2 heavy + 2 light chains co-expressed, protein A, LC-MS; competing light chain m20.
Test [29] has the same target. The experiment in a line: SMCA: H1, H2, L1, L2 co-expressed in CHO-3E7, protein A purified, LC-MS; competing light chain m16.
For test [30] the target is unchanged. In words: SMCA: H1, H2, L1, L2 co-expressed in CHO-3E7, protein A purified, LC-MS; competing light chain m18.
Test [31] has the same target. The experiment in a line: SMCA: H1, H2, L1, L2 co-expressed in CHO-3E7, protein A purified, LC-MS; competing light chain m16; against wild-type bispecific.
For test [32] the target is unchanged. In words: SMCA: H1, H2, L1, L2 co-expressed in CHO-3E7, protein A purified, LC-MS; competing light chain m18; against wild-type bispecific.
The target of test [33] is D3H44 light chain Q38E_Q124E_Q160E_T180E. In words: SMCA: H1, H2, L1, L2 co-expressed in CHO-3E7, protein A, LC-MS; competitor light chain m47.
Test [34] has the same target. The experiment in a line: SMCA: H1, H2, L1, L2 co-expressed in CHO-3E7, protein A purified, LC-MS; competing light chain m12.
For test [35] the target is unchanged. The experiment in a line: SMCA: H1, H2, L1, L2 co-expressed in CHO-3E7, protein A purified, LC-MS; competing light chain m12; *** estimated change against a similar wild-type construct.
Test [36] addresses D3H44 light chain Q124E_L135W_Q160E_T180E. The experiment in a line: SMCA, LC-MS of 4 co-expressed chains; competing light chain m28.
Test [37] concerns the target D3H44 light chain Q124E_Q160E_T180E. In words: SMCA, LC-MS of 4 co-expressed chains; competing light chain m31.
Test [38] has the same target. In words: SMCA, LC-MS of 4 co-expressed chains; competing light chain m48.
Test [39] has as its target D3H44 light chain Q124E_L135W_Q160E_T180E. The experiment in a line: SMCA, LC-MS; change vs wild-type bispecific; competing light chain m28.
The target of test [40] is D3H44 light chain Q124E_Q160E_T180E. The experiment in a line: SMCA, LC-MS; change vs wild-type bispecific; competing light chain m31.
The target is the same in test [41]. The experiment in a line: SMCA, LC-MS; change vs wild-type bispecific; competing light chain m48.
Test [42] deals with D3H44 light chain Q124E_L135W_Q160E_T180E. In words: SMCA: H1, H2, L1, L2 co-expressed in CHO-3E7, protein A, LC-MS; competitor light chain m32.
For test [43], the target named is D3H44 light chain Q124E_Q160E_T180E. In words: SMCA: H1, H2, L1, L2 co-expressed in CHO-3E7, protein A, LC-MS; competitor light chain m37.
In test [44] the target is Trastuzumab light chain Q38R_Q124R_Q160K_T178R. The experiment in a line: SMCA: H1, H2, L1, L2 co-expressed in CHO-3E7, protein A purified, LC-MS; competing light chain m16.
Test [45] deals with Trastuzumab light chain Q38E_Q124E_Q160E_T180E. The experiment in a line: SMCA: H1, H2, L1, L2 co-expressed in CHO-3E7, protein A purified, LC-MS; competing light chain m12.
Test [46] shares this target. In words: SMCA: H1, H2, L1, L2 co-expressed in CHO-3E7, protein A purified, LC-MS; competing light chain m14.
Test [47] shares this target. In words: SMCA: H1, H2, L1, L2 co-expressed in CHO-3E7, protein A purified, LC-MS; competing light chain m12; against wild-type bispecific.
Test [48] shares this target. In words: SMCA: H1, H2, L1, L2 co-expressed in CHO-3E7, protein A purified, LC-MS; competing light chain m14; against wild-type bispecific.

As to “Cetuximab heavy chain A139C_L143E_K145T_Q179E”, the Change in % H2L2 Pairing (over all H2 species) with respect to wild type in test [1] was found to be 0%; in test [2], 3%.

With “Cetuximab heavy chain Q39E_L143E_K145T_Q179E”, the % H2L2 Pairing (over all H2 species) in test [3] is 52.3%. Moreover, the Change in % H2L2 Pairing (over all H2 species) with respect to wild type is 22.7% in test [4] and 1.6% in [5].

The substance Cetuximab heavy chain Q39R_H172R_Q179K registered a Change in % H2L2 Pairing (over all H2 species) with respect to wild type in [6] of 0.6%.

As to Cetuximab heavy chain Q179K, the Change in % H2L2 Pairing (over all H2 species) with respect to wild type in test [7] came out at 1.7%; in test [8] it was 0%.

For orientation: Kd means a measure of binding affinity in units of concentration. For “D3H44 Fab heterodimer (H1L1) of LCCA Sets # 9683, 9684: H1 L143E_K145T_Q179E, L1 T178R”, the dissociation constant (Kd) in test [9] and in test [11] was 0.3 nM each time. For the same substance, the change in median KD compared to wild type, -(log(KD design)-log(KD wt)) in [10] and in test [12] was -0.28 throughout.

Turning to “D3H44 heavy chain A139C_L143E_K145T_Q179E (from UniProt P0DOX5 2-448)”, the % H1L1 Pairing (over all H1 species) in test [13] and in test [15] was 100% in each case. The Change in % H1L1 Pairing (over all H1 species) with respect to wild type in [14] is 38.1%.

Take “D3H44 heavy chain L143E_K145T_Q179E (from UniProt P0DOX5 2-448)”: the % H1L1 Pairing (over all H1 species) in [16], in [17], in [20] and in [21] was 100% throughout. For the same substance, the Change in % H1L1 Pairing (over all H1 species) with respect to wild type in [18] and in test [19] was 38.1% each time.

Take “D3H44 heavy chain L143R (from UniProt P0DOX5 2-448)”: the % H1L1 Pairing (over all H1 species) stood at 100% in test [22], 97.1% in [23], 100% in [26] and 100% in test [27]. The Change in % H1L1 Pairing (over all H1 species) with respect to wild type was 59.8% in test [24] and 43.3% in test [25].

“D3H44 heavy chain Q39E_L143E_K145T_Q179E (from UniProt P0DOX5 2-448)”: the % H1L1 Pairing (over all H1 species) in [28] was 100%; in test [29], 100%; in [30] it was 86.6%. Besides, the results for the Change in % H1L1 Pairing (over all H1 species) with respect to wild type in [31] and in test [32] were 38.1% and 46%, respectively.

As to “D3H44 heavy chain Q39R_H172R_Q179K (from UniProt P0DOX5 2-448)”, the % H1L1 Pairing (over all H1 species) in test [33] and in [34] was 100% throughout. For the same substance, the Change in % H1L1 Pairing (over all H1 species) with respect to wild type in test [35] was 43.3%.

For the substance “D3H44 heavy chain Q179K (from UniProt P0DOX5 2-448)”, the % H1L1 Pairing (over all H1 species) in test [36], in [37], in test [38], in test [42] and in [43] was 100% throughout. Also, the Change in % H1L1 Pairing (over all H1 species) with respect to wild type came out at 38.1% in test [39], 52.5% in test [40] and 62.7% in test [41].

For “Trastuzumab heavy chain Q39E_L143E_K145T_Q179E (from UniProt P0DOX5 2-448)”, the % H1L1 Pairing (over all H1 species) in test [44] came to 100%.

In test [45], “Trastuzumab heavy chain Q39R_H172R_Q179K (from UniProt P0DOX5 2-448)” displayed a % H1L1 Pairing (over all H1 species) of 100%. In addition, the % H2L2 Pairing (over all H2 species) in [46] worked out at 100%. In test [47], this substance registered a Change in % H1L1 Pairing (over all H1 species) with respect to wild type of 6%. In test [48], this substance registered a Change in % H2L2 Pairing (over all H2 species) with respect to wild type of 7%.

The record behind these values is US11306156.
